Results as given in paper PMC5309781.

How the values were obtained:
[1] = molecular target: ZIKV NS1 β-ladder domain (NS1 172-352) T233A mutant (Zika virus, strain Suriname); assay: AUC; sedimentation velocity, 2.95 mg/mL, 20 mM Hepes pH 7.4, 150 mM NaCl, 20 °C, 53,000 rpm, interference optics, continuous c(s) model in SEDFIT
[2] = molecular target: ZIKV NS1 β-ladder domain (NS1 172-352), strain Suriname (Zika virus, strain Suriname); assay: as above

Row | Substance | percent of the protein in the monomeric state [1] [%] | stoichiometry N [1] | percent of the protein in the monomeric state [2] [%] | stoichiometry N [2]
1 | ZIKV NS1 β-ladder domain (NS1 172-352) T233A mutant (domain or fragment) | > 49 | 2 |  | 
2 | ZIKV NS1 β-ladder domain (NS1 172-352), strain Suriname (domain or fragment) |  |  | 7.8 | 2
